Assay [1] has as its target T1, biotinylated GPC3 peptide (chemically-synthetized peptide having a human glypican 3 protein-derived sequence, … (human, C-terminal Lys is biotinylated)).
T1 construct: Synthetic peptide immobilized on Sensor chip SA through biotin-streptavidin
T1 peptide: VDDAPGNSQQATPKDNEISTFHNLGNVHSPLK
Briefly: SPR (Biacore T200), capture of human IgE on Sensor chip SA carrying the biotinylated GPC3 peptide, 37 degrees C.

The target in assay [2] is T2, human IgE (human).
T2 construct: Recombinant antigen; variable region derived from an anti-human glypican3 antibody; also called hIgE
In words: SPR Biacore T200, 37 C; pH 5.8, 3 microM Ca.
Protocol: (§1) Human IgE was immobilized onto the chip by injecting it at an appropriate concentration so as to be trapped by the biotinylated GPC3 peptide. […] Then, 10 mmol/L glycine-HCl (pH 1.5) was injected to regenerate the sensor chip. The interaction was always measured at 37 degrees C. The measurement result was analyzed by curve fitting using Biacore T200 Evaluation Software (GE Healthcare) to calculate the association rate constant ka (1/Ms) and dissociation rate constant kd (1/s). The dissociation constant KD (M) was calculated from the above-described constants.

For assay [3], the target named is T2, human IgE. In words: SPR Biacore T200, 37 C; pH 5.8, 1.2 mM Ca.
Protocol: as §1
Assay [4] deals with T2, human IgE. In words: SPR Biacore T200, 37 C; ratio of KD, pH/Ca dependency.
Protocol: as §1
The target in assay [5] is T2, human IgE. Briefly: SPR Biacore T200, 37 C, hIgE captured via biotinylated GPC3 peptide, Ab analyte; pH 7.4, 1.2 mM Ca.
Protocol: as §1
Assay [6] addresses T2, human IgE. Briefly: SPR Biacore T200, 37 C; ratio of KD, pH dependency.
Protocol: as §1
The target of assay [7] is T3, soluble human FcRn (heterodimer of FcRn alpha chain and beta2-microglobulin) (human, UniProt P55899 24-297; P61769 21-119).
T3 construct: Signal regions are part of the expressed constructs; also called hFcRn
T3 sequence (P55899 24-297 limits assumed, chain 1 of 2): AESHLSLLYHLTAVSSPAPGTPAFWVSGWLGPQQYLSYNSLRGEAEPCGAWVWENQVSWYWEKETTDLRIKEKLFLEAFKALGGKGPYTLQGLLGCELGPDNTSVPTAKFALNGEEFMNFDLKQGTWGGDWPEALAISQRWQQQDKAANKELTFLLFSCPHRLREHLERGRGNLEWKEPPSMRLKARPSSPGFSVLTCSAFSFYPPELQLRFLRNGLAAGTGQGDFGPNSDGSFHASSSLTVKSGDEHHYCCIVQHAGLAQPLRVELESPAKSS
T3 sequence (P61769 21-119 limits assumed, chain 2 of 2): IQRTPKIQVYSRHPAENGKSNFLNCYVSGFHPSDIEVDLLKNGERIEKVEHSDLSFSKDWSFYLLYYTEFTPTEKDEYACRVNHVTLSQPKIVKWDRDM
In words: statement in Example 3.

Assay [8] addresses T3, soluble human FcRn (heterodimer of FcRn …). Briefly: SPR, hFcRn at pH 7.0.
The target in assay [9] is T4, soluble human FcRn (human, UniProt P55899 24-297; P61769 21-119).
T4 construct: Heterodimer of alpha chain and beta2-microglobulin; also called hFcRn
T4 sequence (P55899 24-297 limits assumed, chain 1 of 2): as the sequence (P55899 24-297 limits assumed, chain 1 of 2) above
T4 sequence (P61769 21-119 limits assumed, chain 2 of 2): as the sequence (P61769 21-119 limits assumed, chain 2 of 2) above
Briefly: SPR (Biacore), pH 6.0; Table 26 series (4-5), a different experiment from Table 25; pH 6.0.

Assay [10] has as its target T4, soluble human FcRn. Briefly: SPR (Biacore), pH 6.0.
For assay [11], the target named is T5, human IgA (human).
T5 construct: Recombinant antigen; variable region derived from an anti-human IL-6 receptor antibody; also called hIgA
T5 sequence (VH, as listed by the source): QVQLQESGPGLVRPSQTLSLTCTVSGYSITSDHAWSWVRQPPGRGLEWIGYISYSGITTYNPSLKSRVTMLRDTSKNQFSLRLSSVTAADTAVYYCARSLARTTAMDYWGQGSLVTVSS
In words: SPR Biacore T200, 37 C; pH 7.4, 3 microM Ca; steady state affinity.
Protocol: (§2) The antibodies isolated as described in 8-2 were assessed for their hIgA-binding activity (dissociation constant KD (M)) using Biacore T200 (GE Healthcare). Running buffers used in the measurement were 0.05% tween20/20 mmol/L ACES/150 mmol/L NaCl (pH 7.4 or 5.8) containing 3 microM or 1.2 mM CaCl₂.
(§3) The antibody was allowed to bind to Sensor chip CM5 (GE Healthcare) immobilized with a suitable amount of recombinant Protein A/G (Thermo Scientific) by the amino coupling method. Then, an appropriate concentration of hIgA (described in 8-1) was injected as an analyte to allow interaction with the antibody on the sensor chip. The measurement was carried out at 37 degrees C. After the measurement, 10 mmol/L glycine-HCl (pH 1.5) was injected to regenerate the sensor chip. The dissociation constant KD (M) was calculated from the measurement result by curve fitting analysis and equilibrium parameter analysis using Biacore T200 Evaluation Software (GE Healthcare).

In assay [12] the target is T5, human IgA. Briefly: SPR Biacore T200, 37 C; pH 5.8, 1.2 mM Ca; steady state affinity.
Protocol: as §2, §3
The target of assay [13] is T5, human IgA. In words: SPR Biacore T200, 37 C; pH 5.8, 3 microM Ca; steady state affinity.
Protocol: as §2, §3
For assay [14], the target named is T5, human IgA. Briefly: SPR Biacore T200, 37 C, Ab on Protein A/G, hIgA analyte; pH 7.4, 1.2 mM Ca; 1:1 binding model; pH 7.4, 1.2 mM Ca; 1:1 binding model.
Protocol: as §2, §3
The target of assay [15] is T5, human IgA. In words: SPR Biacore T200, 37 C, Ab on Protein A/G, hIgA analyte; pH 7.4, 1.2 mM Ca; 1:1 binding model.
Protocol: as §2, §3

B1: human IgE (recombinant; variable region derived from an anti-human glypican3 antibody) (other)
heavy: QVQLVQSGAEVKKPGASVKVSCKASGYTFTDYEMHWVRQAPGQGLEWMGALDPKTGDTAYSQKFKGRVTLTADKSTSTAYMELSSLTSEDTAVYYCTRFYSYTYWGQGTLVTVSSASTQSPSVFPLTRCCKNIPSNATSVTLGCLATGYFPEPVMVTWDTGSLNGTTMTLPATTLTLSGHYATISLLTVSGAWAKQMFTCRVAHTPSSTDWVDNKTFSVCSRDFTPPTVKILQSSCDGGGHFPPTIQLLCLVSGYTPGTINITWLEDGQVMDVDLSTASTTQEGELASTQSELTLSQKHWLSDRTYTCQVTYQGHTFEDSTKKCADSNPRGVSAYLSRPSPFDLFIRKSPTITCLVVDLAPSKGTVNLTWSRASGKPVNHSTRKEEKQRNGTLTVTSTLPVGTRDWIEGETYQCRVTHPHLPRALMRSTTKTSGPRAAPEVYAFATPEWPGSRDKRTLACLIQNFMPEDISVQWLHNEVQLPDARHSTTQPRKTKGSGFFVFSRLEVTRAEWEQKDEFICRAVHEAASPSQTVQRAVSVNPGK
light: DVVMTQSPLSLPVTPGEPASISCRSSQSLVHSNRNTYLHWYLQKPGQSPQLLIYKVSNRFSGVPDRFSGSGSGTDFTLKISRVEAEDVGVYYCSQNTHVPPTFGQGTKLEIKRTVAAPSVFIFPPSDEQLKSGTASVVCLLNNFYPREAKVQWKVDNALQSGNSQESVTEQDSKDSTYSLSSTLTLSKADYEKHKVYACEVTHQGLSSPVTKSFNRGEC
notes: Used as antigen; also called hIgE
Regarding B1, the binding result in assay [1] was “binds”.

B2: clone 278 (antibody, human IgG1, kappa, V domains shown)
VH: QSLEESGGRLVTPGTPLTLTCTASGFSLSSYHMSWVRQAPGKGLEWIGVINSAGNTYYASWAKGRFTVSKTSTTVDLNLTSLTTEDTATYFCARYVFSSGSHDIWGPGTLVTVSS
VL: AYDMTQTPASVEVAVGGTVTIKCQASQSIGSWLAWYQQKPGQPPKELIYGTSTLESGVPSRFIGSGSGTEFTLTISGVECADAATYYCQQGYSEDNIDNAFGGGTEVVVKR
notes: human IgG1 heavy chain constant region and human light chain constant region
In assay [2], B2 had an equilibrium dissociation constant (Kd) of 3900 nM, a dissociation rate constant (koff) of 0.24 s⁻¹ and an association rate constant (kon) of 62000 M⁻¹ s⁻¹. In addition, in assay [3], the Kd was 2000 nM, the koff was 0.23 s⁻¹ and the kon turned out to be 120000 M⁻¹ s⁻¹. For the same molecule, in assay [4], the “KD (pH 5.8, 3 microM Ca)/KD (pH 7.4, 1.2 mM Ca)” value came to 1640. For the same molecule, in assay [5], the affinity, expressed as Kd, was 2.4 nM; the dissociation rate constant (koff) was found to be 0.0036 s⁻¹; the association rate constant (kon) is 1.5e+06 M⁻¹ s⁻¹. The “KD (pH 5.8, 1.2 mM Ca)/KD (pH 7.4, 1.2 mM Ca)” value in assay [6] was determined as 842.

B3: Fv-4-F946 (antibody, human IgG1, kappa)
heavy: QVQLQESGPGLVKPSETLSLTCAVSGHSISHDHAWSWVRQPPGEGLEWIGFISYSGITNYNPSLQGRVTISRDNSKNTLYLQMNSLRAEDTAVYYCARSLARTTAMDYWGEGTLVTVSSASTKGPSVFPLAPSSKSTSGGTAALGCLVKDYFPEPVTVSWNSGALTSGVHTFPAVLQSSGLYSLSSVVTVPSSSLGTQTYICNVNHKPSNTKVDKKVEPKSCDKTHTCPPCPAPELLGGPSVFLFPPKPKDVLYISRTPEVTCVVVDVSHEDPEVKFNWYVDGVEVHNAKTKPREEQYNSTYRVVSVLQVLHADWLNGKEYKCKVSNKALPAPIEKTISKAKGQPREPQVYTLPPSRDELTKNQVSLTCLVKGFYPSDIAVEWESNGQPENNYKTTPPVLDSDGSFFLYSKLTVDKSRWQQGNVFSCSVMHEALHYHVTQKSLSLSP
light: DIQMTQSPSSLSASVGDSVTITCQASTDISSHLNWYQQKPGKAPELLIYYGSHLLSGVPSRFSGSGSGTDFTFTISSLEAEDAATYYCGQGNRLPYTFGQGTKVEIERTVAAPSVFIFPPSDEQLKSGTASVVCLLNNFYPREAKVQWKVDNALQSGNSQESVTEQDSKDSTYSLSSTLTLSKADYEKHKVYACEVTHQGLSSPVTKSFNRGEC
notes: VH3-F946 and VL3-CK
For the molecule B3, the binding result in [7] is on record as “binds”.

B4: Fv-4-F1080 (antibody, human IgG1, kappa, name in EU numbering)
heavy: QVQLQESGPGLVKPSETLSLTCAVSGHSISHDHAWSWVRQPPGEGLEWIGFISYSGITNYNPSLQGRVTISRDNSKNTLYLQMNSLRAEDTAVYYCARSLARTTAMDYWGEGTLVTVSSASTKGPSVFPLAPSSKSTSGGTAALGCLVKDYFPEPVTVSWNSGALTSGVHTFPAVLQSSGLYSLSSVVTVPSSSLGTQTYICNVNHKPSNTKVDKKVEPKSCDKTHTCPPCPAPELLGGPSVFLFPPKPKDTLYISRTPEVTCVVVDVSHEDPEVKFNWYVDGVEVHNAKTKPREEQYNSTYRVVSVLTVLHQDWLNGKEYKCKVSNKALPAPIEKTISKAKGQPREPQVYTLPPSRDELTKNQVSLTCLVKGFYPSDIAVEWESNGQPENNYKTTPPVLDSDGSFFLYSKLTVDKSRWQQGNVFNCSVMHEALHYHYTQKSLSLSP
light: DIQMTQSPSSLSASVGDSVTITCQASTDISSHLNWYQQKPGKAPELLIYYGSHLLSGVPSRFSGSGSGTDFTFTISSLEAEDAATYYCGQGNRLPYTFGQGTKVEIERTVAAPSVFIFPPSDEQLKSGTASVVCLLNNFYPREAKVQWKVDNALQSGNSQESVTEQDSKDSTYSLSSTLTLSKADYEKHKVYACEVTHQGLSSPVTKSFNRGEC
modifications: additional N-glycosylation found by SDS-PAGE (S424N)
As to B4, in assay [8], the binding result is “binds”.

B5: Fv-4-LS (antibody, human IgG1, kappa)
heavy: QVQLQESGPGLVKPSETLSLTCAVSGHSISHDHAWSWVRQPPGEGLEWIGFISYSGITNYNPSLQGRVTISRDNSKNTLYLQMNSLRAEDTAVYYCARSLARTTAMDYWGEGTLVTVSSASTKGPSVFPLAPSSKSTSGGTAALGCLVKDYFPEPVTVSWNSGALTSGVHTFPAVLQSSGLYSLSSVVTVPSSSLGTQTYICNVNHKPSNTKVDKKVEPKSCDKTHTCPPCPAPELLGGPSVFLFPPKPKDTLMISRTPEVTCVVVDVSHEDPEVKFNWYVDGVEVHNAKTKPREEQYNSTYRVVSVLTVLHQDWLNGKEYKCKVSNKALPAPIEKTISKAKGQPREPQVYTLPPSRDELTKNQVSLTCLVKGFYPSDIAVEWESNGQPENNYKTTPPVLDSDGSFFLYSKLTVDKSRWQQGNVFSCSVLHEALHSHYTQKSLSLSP
light: DIQMTQSPSSLSASVGDSVTITCQASTDISSHLNWYQQKPGKAPELLIYYGSHLLSGVPSRFSGSGSGTDFTFTISSLEAEDAATYYCGQGNRLPYTFGQGTKVEIERTVAAPSVFIFPPSDEQLKSGTASVVCLLNNFYPREAKVQWKVDNALQSGNSQESVTEQDSKDSTYSLSSTLTLSKADYEKHKVYACEVTHQGLSSPVTKSFNRGEC
notes: also called F22
In the case of B5, the values for the Kd in [9] and in assay [10] were 71 nM and 160 nM, respectively.

B6: GA2-IgG1 (antibody, V domains shown)
VH: QVQLVQSGAEVKKPGSSVKVSCKASGGTFSSYAISWVRQAPGQGLEWMGGIIPIFGTANYAQKFQGRVTITADESTSTAYMELSSLRSEDTAVYYCARPRWETAISSDAFDIWGQGTMVTVSS
VL: DIQMTQSPSSLSASVGDRVTITCRASQSISDDLNWYQQKPGKAPKLLIYEASNLQSGVPSRFSGSGSGTDFTLTISSLQPEDFATYYCQQHSSSPLTFGQGTKVEIKR
As to B6, the dissociation constant Kd in assay [11] is 6700 nM; in [12], 4000 nM; in [13], 5000 nM; in assay [15], 39 nM. This molecule also yielded a kon in assay [14] of 400000 M⁻¹ s⁻¹.

Source of the values: patent US20140363428A1 (Chugai, published 2014).
